Common to all, as to test: ninhydrin release assay, A570, Lineweaver-Burk
Holding throughout (format): biochemical, Aspergillus niger
What all share (conditions): 0.1 mol L^−1 disodium hydrogen phosphate-citric acid buffer, pH 6.0, 45 °C

For series [1], the system named is T1, C[C@H](NC(=O)OCc1ccccc1)C(=O)N[C@@H](CCCCN)C(=O)O.
T1 construct: ORF 1479 bp, 492 residues with predicted 19-residue signal peptide; secreted from Pichia pastoris GS115 (pPIC9K), purified; no tag told

Series [2] concerns T2, O=C(O)CNC(=O)[C@@H]1CCCN1C(=O)OCc1ccccc1.
T2 construct: ORF 1479 bp, 492 residues with predicted 19-residue signal peptide; secreted from Pichia pastoris GS115 (pPIC9K), purified; no tag told

The test system of series [3] is T3, C[C@H](NC(=O)CNC(=O)OCc1ccccc1)C(=O)O.
T3 construct: ORF 1479 bp, 492 residues with predicted 19-residue signal peptide; secreted from Pichia pastoris GS115 (pPIC9K), purified; no tag told

For series [4], the system named is T4, C[C@H](NC(=O)OCc1ccccc1)C(=O)N[C@@H](CCC(=O)O)C(=O)O.
T4 construct: ORF 1479 bp, 492 residues with predicted 19-residue signal peptide; secreted from Pichia pastoris GS115 (pPIC9K), purified; no tag told

Series [5] has as its system T5, CC(C)C[C@H](NC(=O)[C@H](Cc1ccccc1)NC(=O)OCc1ccccc1)C(=O)O.
T5 construct: ORF 1479 bp, 492 residues with predicted 19-residue signal peptide; secreted from Pichia pastoris GS115 (pPIC9K), purified; no tag told

One may read the Km as the substrate concentration at which the rate is half of its maximum. Usually Vmax stands for the rate approached at saturating substrate. In general, kcat refers to the number of substrate molecules converted per active site and unit of time at saturation. The term kcat/Km denotes the turnover number divided by the Michaelis constant. On to “CapA (serine carboxypeptidase) (Aspergillus niger CBS 513.88)”, for which the Km in series [1] came out at 0.18 ± 0.03 mmol/L; in series [2] it was 1.17 ± 0.21 mmol/L; in series [3], 0.24 ± 0.02 mmol/L; in series [4] it was 1.44 ± 0.09 mmol/L; in series [5], 0.063 ± 0.01 mmol/L. For the same substance, the Vmax in series [1] turned out to be 41900 µM/min/mg; in series [2] it was 9770 µM/min/mg; in series [3], 42700 µM/min/mg; in series [4] it was 6490 µM/min/mg; in series [5], 54800 µM/min/mg. The kcat is 2.32 ± 0.17 s⁻¹ in series [1]; 0.47 ± 0.02 s⁻¹ in series [2]; 1.71 ± 0.08 s⁻¹ in series [3]; 0.18 ± 0.01 s⁻¹ in series [4]; 11.7 ± 1.02 s⁻¹ in series [5]. Further, the kcat/Km in series [1] turned out to be 12900 ± 1130 M⁻¹ s⁻¹; in series [2] it was 400 ± 50 M⁻¹ s⁻¹; in series [3] it was 7130 ± 480 M⁻¹ s⁻¹; in series [4], 130 ± 10 M⁻¹ s⁻¹; in series [5] it was 186000 ± 16700 M⁻¹ s⁻¹.
